For this test, the target named is PFD1235w DBLβ3_D4, wild type (P. falciparum 3D7). Put plainly: SPR.

B1: ICAM-1_D1 (domain or fragment)
chain: QTSVSPSKVILPRGGSVLVTCSTSCDQPKLLGIETPLPKKELLLPGNNRKVYELSNVQEDSQPMCYSNCPDGQSTAKTFLTVYWT
As a reminder, the Kd is the equilibrium constant for the complex coming apart. Low readings indicate a tighter complex, high ones a looser complex. A word on the koff: it is a measure of how fast the partners let go of each other. Lower therefore signals slow dissociation. For the molecule B1, the Kd came out at 2.34 nM and the koff came to 0.00337 s⁻¹.

Values taken from publication PMC4574524 (Journal of immunology (Baltimore, Md. : 1950), 2015).
